Consider two molecules from publication PMC9438503, “The Haemophilus influenzae HipBA toxin–antitoxin system adopts an unusual three-component regulatory mechanism” (IUCrJ, 2022).

The target in assay [1] is HipB antitoxin from Haemophilus influenzae (HI0666.1) (H. influenzae (KW20 strain, ATCC 51907)) (UniProt P44034). The assay is described as follows: cross-linking; chemical cross-linking of H. influenzae HipB with DMA and DMS cross-linkers, SDS-PAGE.
Assay [2] deals with T1, HipA^C, C-terminal component of the split HipA toxin from Haemophilus influenzae (HI0665), His-tagged (H. influenzae (KW20 strain, ATCC 51907), UniProt P44033 1-343).
T1 construct: also called His-tagged HipA^C; not shown: His6, N-terminal, kept
T1 sequence: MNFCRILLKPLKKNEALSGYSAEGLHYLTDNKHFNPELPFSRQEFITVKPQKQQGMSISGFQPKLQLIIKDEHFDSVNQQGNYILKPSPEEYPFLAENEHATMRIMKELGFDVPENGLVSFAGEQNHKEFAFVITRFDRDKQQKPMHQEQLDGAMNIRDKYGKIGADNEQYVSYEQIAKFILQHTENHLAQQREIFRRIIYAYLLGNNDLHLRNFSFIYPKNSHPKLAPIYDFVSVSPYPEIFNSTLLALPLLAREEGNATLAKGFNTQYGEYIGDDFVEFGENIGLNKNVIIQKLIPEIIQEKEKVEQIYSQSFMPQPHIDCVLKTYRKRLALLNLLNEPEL
The assay is described as follows: pull-down. Conditions: partners not purified.

“HipB antitoxin from Haemophilus influenzae (HI0666.1) (from UniProt P44034 1-106) (natural protein)”: the stoichiometry N in assay [1] was 2.

B1: HipA^N, N-terminal component of the split HipA toxin from Haemophilus influenzae (HI0666) (natural protein)
chain: MRDLVRSGKVFLYGEFIGLLREDHRGFHFSYNPDYQGIPLSLSFPIEQSPFHSDTLFPYFASLVPEGWLKHKYALHQRIDESDMFRFLLNNGENMLGAVQIQEEKQ
B1: in assay [2], the binding result is on record as “binds”.

Broadly, the stoichiometry N is a count of units in the complex or per binding partner.
